Data as given in patent US20240360226A1 (AstraZeneca / MedImmune, published 2024).

T1: HER4 (Homo sapiens (Human), UniProt Q15303 26-651)
T1 construct: also called EGFR HER family protein HER4
T1 sequence: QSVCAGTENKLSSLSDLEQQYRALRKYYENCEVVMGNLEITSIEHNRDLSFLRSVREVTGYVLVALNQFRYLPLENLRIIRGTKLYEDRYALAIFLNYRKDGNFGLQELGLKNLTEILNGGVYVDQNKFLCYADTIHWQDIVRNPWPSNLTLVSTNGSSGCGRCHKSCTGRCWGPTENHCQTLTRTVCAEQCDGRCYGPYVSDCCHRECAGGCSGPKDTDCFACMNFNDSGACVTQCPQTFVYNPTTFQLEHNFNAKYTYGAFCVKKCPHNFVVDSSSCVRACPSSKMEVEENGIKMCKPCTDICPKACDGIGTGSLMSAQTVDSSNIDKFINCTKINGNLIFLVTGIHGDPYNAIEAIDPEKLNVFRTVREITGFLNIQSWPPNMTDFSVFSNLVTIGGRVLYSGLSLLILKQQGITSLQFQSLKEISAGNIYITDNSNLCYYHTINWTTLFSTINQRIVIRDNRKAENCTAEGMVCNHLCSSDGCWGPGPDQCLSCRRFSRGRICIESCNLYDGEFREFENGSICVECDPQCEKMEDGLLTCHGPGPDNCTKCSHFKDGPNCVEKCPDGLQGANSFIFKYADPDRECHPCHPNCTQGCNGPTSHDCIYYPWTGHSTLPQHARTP


Tests used:
HER2 = biological target: T2, HER2 (Homo sapiens (Human), UniProt P04626 23-652); test: ELISA, antigen coated at 1 ug/mL, anti-human Fab-HRP detection, A450
T2 construct: also called EGFR HER family protein HER2

[1] = biological target: EGFR and c-MET co-expressed on NCI-H1975 cells; test: confocal fluorescence microscopy, AF647-labelled antibody pre-bound to H1975 cells, T=0
Mouse cMET (recombinant) = Mouse cMET (recombinant) (mouse, UniProt P16056 25-931, limits assumed); test: ELISA, antigen coated at 1 ug/mL, anti-human Fab-HRP detection, A450
Mouse cMET (recombinant), sequence (P16056 25-931 limits assumed): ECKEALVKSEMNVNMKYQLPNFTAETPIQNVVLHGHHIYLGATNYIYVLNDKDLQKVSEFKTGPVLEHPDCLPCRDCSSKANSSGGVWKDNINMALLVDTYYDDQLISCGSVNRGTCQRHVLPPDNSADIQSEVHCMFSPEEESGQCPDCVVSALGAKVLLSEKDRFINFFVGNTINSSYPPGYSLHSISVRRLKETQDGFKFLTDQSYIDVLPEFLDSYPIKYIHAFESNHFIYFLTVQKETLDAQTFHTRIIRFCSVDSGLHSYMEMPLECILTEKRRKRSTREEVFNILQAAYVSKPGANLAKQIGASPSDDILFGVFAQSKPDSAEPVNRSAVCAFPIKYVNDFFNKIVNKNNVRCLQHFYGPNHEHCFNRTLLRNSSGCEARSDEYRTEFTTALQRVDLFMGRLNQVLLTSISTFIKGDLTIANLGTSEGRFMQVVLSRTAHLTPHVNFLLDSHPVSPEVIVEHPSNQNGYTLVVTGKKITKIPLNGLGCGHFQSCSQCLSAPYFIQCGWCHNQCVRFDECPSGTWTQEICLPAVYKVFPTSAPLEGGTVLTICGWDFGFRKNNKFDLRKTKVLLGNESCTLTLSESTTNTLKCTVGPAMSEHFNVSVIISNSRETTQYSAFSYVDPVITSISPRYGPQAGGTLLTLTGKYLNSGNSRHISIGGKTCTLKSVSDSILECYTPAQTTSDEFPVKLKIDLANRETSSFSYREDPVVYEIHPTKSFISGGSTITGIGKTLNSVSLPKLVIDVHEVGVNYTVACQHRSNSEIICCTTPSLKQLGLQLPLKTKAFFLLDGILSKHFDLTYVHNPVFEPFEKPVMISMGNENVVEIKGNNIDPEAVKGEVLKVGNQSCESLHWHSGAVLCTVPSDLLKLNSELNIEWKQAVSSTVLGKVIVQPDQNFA
Experimental: (§1) Specificity for EGFR and cMET species paralogs and closely related family members was determined by ELISA. Briefly, antigen solutions were prepared in PBS at 1 μg/mL and 50 microliters was coated onto half area ELISA assay plates. Plates were washed and blocked with 1% BSA in PBS containing 0.005% Tween-20 (PBS-T) for one hour at room temperature. […] Wells were incubated with 50 microliters of the indicated primary antibodies diluted in PBS-T in a 1:3 dilution series, starting at 10 μg/mL and ending at 0.002 ug/mL, except for the HER4 binding mAb control, MAB1131, for which the series started at 1 μg/mL. The wells were washed 4 times in PBS-T, then 50 μl of goat anti-human Fab HRP-labeled secondary antibody, diluted 1:5000 in PBS-T, was added to each well and incubated for one hour at room temperature. […] 50 microliters of TMB stop solution was added to all wells and the absorbance was read at 450 nm on a SpectraMax M5 microplate reader. Data were analyzed in the SoftMax Pro 5 software and plotted using GraphPad Prism 7 graphing software.
(§2) To determine the species cross reactivity, ELISA assays were carried out as described above.

[2] = biological target: EGFR and c-MET co-expressed on HCC827 cells; test: confocal fluorescence microscopy, AF647-labelled antibody pre-bound to cells, T=0
HER4 = biological target: T1, HER4; test: ELISA, antigen coated at 1 ug/mL, anti-human Fab-HRP detection, A450
[3] = biological target: T3, Cynomolgus monkey cMET (recombinant, soluble monomeric) (cynomolgus monkey, UniProt A0M8R7 25-932 (Papio anubis entry)); test: SPR (Biacore T200), antibody captured on anti-human IgG, soluble monomeric antigen as analyte, 25 C
T3 construct: also called cyno c-Met
T3 sequence (A0M8R7 25-932 S170N/I621T): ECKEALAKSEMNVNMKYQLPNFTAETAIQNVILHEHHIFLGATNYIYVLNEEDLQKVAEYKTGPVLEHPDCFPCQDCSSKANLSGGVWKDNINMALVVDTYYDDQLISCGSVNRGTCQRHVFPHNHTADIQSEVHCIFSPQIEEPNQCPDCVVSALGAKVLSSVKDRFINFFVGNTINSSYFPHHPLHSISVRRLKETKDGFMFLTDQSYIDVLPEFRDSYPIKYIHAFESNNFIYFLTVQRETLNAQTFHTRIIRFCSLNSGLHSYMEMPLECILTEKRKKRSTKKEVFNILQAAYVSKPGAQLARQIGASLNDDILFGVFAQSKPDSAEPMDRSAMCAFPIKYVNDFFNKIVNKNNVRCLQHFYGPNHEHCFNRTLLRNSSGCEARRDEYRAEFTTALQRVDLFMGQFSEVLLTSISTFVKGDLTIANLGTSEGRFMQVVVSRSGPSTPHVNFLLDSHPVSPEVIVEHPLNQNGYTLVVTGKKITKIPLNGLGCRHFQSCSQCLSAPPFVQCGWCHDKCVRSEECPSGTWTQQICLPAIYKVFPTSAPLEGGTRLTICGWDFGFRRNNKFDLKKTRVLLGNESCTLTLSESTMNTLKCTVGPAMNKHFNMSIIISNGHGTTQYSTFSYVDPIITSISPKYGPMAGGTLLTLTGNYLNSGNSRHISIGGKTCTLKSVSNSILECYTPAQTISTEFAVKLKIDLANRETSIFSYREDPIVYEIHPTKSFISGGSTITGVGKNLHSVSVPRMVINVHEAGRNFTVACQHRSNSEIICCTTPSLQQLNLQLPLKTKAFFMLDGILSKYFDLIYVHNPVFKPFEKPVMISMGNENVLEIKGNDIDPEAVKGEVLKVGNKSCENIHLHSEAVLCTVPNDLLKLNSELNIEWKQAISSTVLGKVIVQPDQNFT
Experimental: (§3) Mouse anti-human IgG was immobilized on a CM4 sensor chip with a final surface density of ˜2000 resonance units (RUs). A reference flow cell surface was also prepared on this sensor chip using identical immobilization protocol. Test and control article antibodies were prepared at 5-20 nM in instrument buffer (HBS-EP buffer; 0.01M HEPES, pH 7.4, 0.15M NaCl, 3 mM EDTA, and 0.005% P-20), along with 3-fold serial dilutions of purified EGFR (0.27-200 nM human, 0.4-900 nM cyno, and 4-1000 nM murine) or cMET proteins (0.27 to 66 nM human and 0.27-22 nM cyno) in instrument buffer. A sequential approach was utilized for kinetic measurements. Antibodies were first injected over the capture surface, at a flow rate of 10 μL/minute. Once the binding of the captured antibody stabilized, a single concentration of the analyte was injected over both capture and reference surfaces, at a flow rate of 75 μL/minute. The resulting binding response curves yielded the association phase data. Following the injection of analyte, the flow was then switched back to instrument buffer for 15 minutes to permit the collection of dissociation phase data, followed by a 1-minute pulse of 10 mM glycine, pH 1.5, to regenerate the antibody-captured surface on the chip. Binding responses against test and control article antibodies were recorded from duplicate injections of each concentration of analyte. In addition, several buffer injections were interspersed throughout the injection series. Select buffer injections were used along with the reference cell responses to correct the raw data sets for injection artifacts and/or nonspecific binding interactions, commonly referred to as “double referencing”. Corrected binding data were globally fit to a 1:1 binding model (Biacore T200 Evaluation software 2.0, GE Healthcare, Pittsburgh, PA).
(§4) Kinetic measurements to soluble monomeric forms of EGFR and cMET were performed using a BIACore instrument.

[4] = biological target: T4, Human EGFR (recombinant, soluble monomeric) (human, UniProt P00533 25-645); test: as above
T4 construct: also called EGFR antigen; recombinant human EGFR
Experimental: as §3, §4

[5] = biological target: T5, Cynomolgus monkey EGFR (recombinant, soluble monomeric) (cynomolgus monkey, UniProt P55245 25-645 (rhesus entry)); test: as above
T5 construct: also called cyno EGFR
Experimental: as §3, §4

[6] = biological target: T6, Mouse EGFR (recombinant, soluble monomeric) (mouse, UniProt Q01279 25-647); test: as above
T6 construct: also called murine EGFR
Experimental: as §3, §4

[7] = biological target: T7, Human cMET (recombinant, soluble monomeric) (human, UniProt P08581 25-932); test: as above
T7 construct: also called His-tagged cMET antigen
T7 sequence (P08581 25-932): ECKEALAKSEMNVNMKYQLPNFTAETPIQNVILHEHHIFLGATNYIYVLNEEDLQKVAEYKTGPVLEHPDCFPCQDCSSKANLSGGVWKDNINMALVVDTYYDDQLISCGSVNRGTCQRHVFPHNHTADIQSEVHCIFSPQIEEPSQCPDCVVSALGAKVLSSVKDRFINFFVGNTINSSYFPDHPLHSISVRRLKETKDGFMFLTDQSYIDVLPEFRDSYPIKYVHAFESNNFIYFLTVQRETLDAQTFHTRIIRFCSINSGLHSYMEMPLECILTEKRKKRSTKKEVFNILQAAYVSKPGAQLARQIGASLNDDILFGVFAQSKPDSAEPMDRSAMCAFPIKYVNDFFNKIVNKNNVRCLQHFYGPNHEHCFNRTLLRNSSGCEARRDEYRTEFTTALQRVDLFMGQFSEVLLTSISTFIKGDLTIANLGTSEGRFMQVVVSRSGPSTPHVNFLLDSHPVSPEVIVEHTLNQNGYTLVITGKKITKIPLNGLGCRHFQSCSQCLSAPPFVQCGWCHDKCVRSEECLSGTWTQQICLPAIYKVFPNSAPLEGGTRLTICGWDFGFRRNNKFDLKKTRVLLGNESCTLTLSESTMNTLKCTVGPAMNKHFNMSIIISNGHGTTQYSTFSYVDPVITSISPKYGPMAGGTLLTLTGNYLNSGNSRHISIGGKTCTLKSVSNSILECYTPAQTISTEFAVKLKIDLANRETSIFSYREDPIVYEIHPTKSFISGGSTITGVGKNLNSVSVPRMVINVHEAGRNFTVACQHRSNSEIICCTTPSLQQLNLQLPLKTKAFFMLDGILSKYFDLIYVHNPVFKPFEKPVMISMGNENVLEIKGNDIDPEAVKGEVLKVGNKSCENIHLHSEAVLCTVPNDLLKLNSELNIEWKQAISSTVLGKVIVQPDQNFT
Experimental: as §3, §4

HER3 = biological target: T8, HER3 (Homo sapiens (Human), UniProt P21860 20-643); test: ELISA, antigen coated at 1 ug/mL, anti-human Fab-HRP detection, A450
T8 construct: also called EGFR HER family protein HER3

[8] = biological target: EGFR and c-MET co-expressed on HCC827 cells; test: confocal fluorescence microscopy, AF647-labelled antibody pre-bound to HCC827 cells, T=0
[9] = biological target: c-MET on human tumour cells (NCI-H1975, HCC827) (human) (UniProt P08581); test: cell-based or functional assay
c-MET on human tumour cells (NCI-H1975, HCC827) (human), sequence (P08581 25-1390): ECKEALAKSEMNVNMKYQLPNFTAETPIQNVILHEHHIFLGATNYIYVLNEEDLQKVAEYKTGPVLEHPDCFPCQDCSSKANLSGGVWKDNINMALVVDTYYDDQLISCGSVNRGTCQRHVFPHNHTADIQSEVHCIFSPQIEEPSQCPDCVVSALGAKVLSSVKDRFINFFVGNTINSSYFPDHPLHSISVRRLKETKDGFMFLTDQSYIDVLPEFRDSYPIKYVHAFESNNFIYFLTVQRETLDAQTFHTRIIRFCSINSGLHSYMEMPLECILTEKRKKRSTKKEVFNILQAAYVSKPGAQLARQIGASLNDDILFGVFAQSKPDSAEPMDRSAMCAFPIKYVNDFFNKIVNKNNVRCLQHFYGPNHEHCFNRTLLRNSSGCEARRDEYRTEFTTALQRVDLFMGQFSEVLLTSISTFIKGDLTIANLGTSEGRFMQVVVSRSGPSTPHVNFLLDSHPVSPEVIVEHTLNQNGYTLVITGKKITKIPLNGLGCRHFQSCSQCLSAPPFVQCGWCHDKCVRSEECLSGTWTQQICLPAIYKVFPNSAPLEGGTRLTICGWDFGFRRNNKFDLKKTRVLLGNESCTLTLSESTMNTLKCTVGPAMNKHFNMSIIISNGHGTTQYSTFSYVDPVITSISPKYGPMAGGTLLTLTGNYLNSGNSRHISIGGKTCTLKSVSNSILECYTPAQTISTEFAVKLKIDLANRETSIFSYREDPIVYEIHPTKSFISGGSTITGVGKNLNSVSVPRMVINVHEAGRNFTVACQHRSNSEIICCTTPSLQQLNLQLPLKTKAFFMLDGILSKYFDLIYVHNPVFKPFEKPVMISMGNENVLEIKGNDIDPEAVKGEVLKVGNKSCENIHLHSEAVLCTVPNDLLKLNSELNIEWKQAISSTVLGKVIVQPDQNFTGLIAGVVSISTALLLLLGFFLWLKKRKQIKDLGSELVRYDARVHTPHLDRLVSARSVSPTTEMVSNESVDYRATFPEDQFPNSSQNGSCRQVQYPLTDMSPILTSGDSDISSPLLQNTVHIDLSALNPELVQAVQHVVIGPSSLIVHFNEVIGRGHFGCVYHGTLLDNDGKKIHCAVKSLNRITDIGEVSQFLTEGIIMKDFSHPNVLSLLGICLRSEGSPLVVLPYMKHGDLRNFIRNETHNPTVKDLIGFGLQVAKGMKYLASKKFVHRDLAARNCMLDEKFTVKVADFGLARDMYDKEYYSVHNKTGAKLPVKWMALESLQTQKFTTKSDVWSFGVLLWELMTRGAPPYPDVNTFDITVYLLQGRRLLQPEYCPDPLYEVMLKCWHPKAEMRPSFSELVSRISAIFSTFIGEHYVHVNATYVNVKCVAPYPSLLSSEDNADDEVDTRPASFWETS

[10] = biological target: T5, Cynomolgus monkey EGFR (recombinant, …); test: ELISA, antigen coated at 1 ug/mL, anti-human Fab-HRP detection, A450
Experimental: as §1, §2

[11] = biological target: T6, Mouse EGFR (recombinant, soluble …); test: as above
Experimental: as §1, §2

[12] = biological target: T4, Human EGFR (recombinant, soluble …); test: biolayer interferometry (Octet), antibody bound to cMET captured on NI-NTA sensors, then human EGFR

| Binder | binding result (HER2) | binding result (Mouse cMET (recombinant)) | binding result (HER4) | Kd [3] [nM] | koff [3] [s⁻¹] | kon [3] [M⁻¹ s⁻¹] | Kd [7] [nM] | koff [7] [s⁻¹] | kon [7] [M⁻¹ s⁻¹] | binding result (HER3) | also measured |
| --- | --- | --- | --- | --- | --- | --- | --- | --- | --- | --- | --- |
| RAA22/B09-57 DuetMab (bispecific antibody, human IgG1, kappa, lambda, Labelled with AlexaFluor-647 in the microscopy experiments; also called RAA22/B09-Maia; bispecific EGFR/cMET DuetMAb) heavy 1: QVQLVQSGAEVKKPGSSVKVSCKASGGTFSDNDFSWVRQAPGQGLEWMGAIVAVFRTETYAQKFQDRVKITADISTRTTYMELSSLRSEDTAVYYCARRLMSAISGPGAPLLMWGQGTLVTVSSASTKGPSVFPLAPSSKSTSGGTAALGCLVKDYFPEPVTVSWNSGALTSGVHTFPAVLQSSGLYSLSSVVTVPSSSLGTQTYICNVNHKPSNTKVDKRVEPKSCDKTHTCPPCPAPELLGGPSCVFLFPPKPKDTLMISRTPEVTCVVVDVSHEDPEVKFNWYVDGVEVHNAKTKPREEQYNSTYRVVSVLTVLHQDWLNGKEYKCKVSNKALPAPIEKTISKAKGQPREPQVCTLPPSREEMTKNQVSLSCAVKGFYPSDIAVEWESNGQPENNYKTTPPVLDSDGSFFLVSKLTVDKSRWQQGNVFSCSVMHEALHNHYTQKSLSLSPGK light 1: QSALTQPRSVSGSPGQSVTISCTGTSSDVGGYNYVSWYQQHPGKAPKLMIYDVSKRPSGVPDRFSGSKSGNTASLTISGLQAEDEADYYCSSYTSSDTLEIFGGGTKLTVLGQPKAAPSVTLFPPSSEELQANKATLVCLISDFYPGAVTVAWKADSSPVKAGVETTTPSKQSNNKYAASSYLSLTPEQWKSHRSYSCQVTHEGSTVEKTVAPTECS heavy 2: QVQLVQSGAEVKKPGASVKVSCKASGYTFTDYYIHWVRQATGQGLEWMGWMNPNSGNTGYAQKFQGRVTMTRDTSISTAYMELSSLRSEDTAVYYCARGQGYTHSWGQGTMVTVSSASTKGPSVCPLAPSSKSTSGGTAALGCLVKDYFPEPVTVSWNSGALTSGVHTFPAVLQSSGLYSLSSVVTVPSSSLGTQTYICNVNHKPSNTKVDKRVEPKSVDKTHTCPPCPAPELLGGPSCVFLFPPKPKDTLMISRTPEVTCVVVDVSHEDPEVKFNWYVDGVEVHNAKTKPREEQYNSTYRVVSVLTVLHQDWLNGKEYKCKVSNKALPAPIEKTISKAKGQPREPQVYTLPPCREEMTKNQVSLWCLVKGFYPSDIAVEWESNGQPENNYKTTPPVLDSDGSFFLYSKLTVDKSRWQQGNVFSCSVMHEALHNHYTQKSLSLSPG light 2: DIQMTQSPSTLSASVGDRVTITCRASEGIYHWLAWYQQKPGKAPKLLIYKASSLASGVPSRFSGSGSGTEFTLTISSLQPDDFATYYCQQYSNYPPTFGGGTKLEIKRTVAAPSVFIFPPCDEQLKSGTASVVCLLNNFYPREAKVQWKVDNALQSGNSQESVTEQDSKDSTYSLSSTLTLSKADYEKHKVYACEVTHQGLSSPVTKSFNRGEV | no binding (tested: 10 ug/ml) | no binding (tested: 10 ug/ml) | no binding (tested: 10 ug/ml) | 2.2 | 0.00212 | 974000 | 2.2 | 0.000986 | 443000 | no binding (tested: 10 ug/ml) | MFI [1]: 3.5e+06 MFI; fold higher binding than on H1975 cells [2]: 8.9 fold; Kd [4]: 45 nM; koff [4]: 0.00201 s⁻¹; kon [4]: 44700 M⁻¹ s⁻¹; Kd [5]: 197 nM; koff [5]: 0.00548 s⁻¹; kon [5]: 27800 M⁻¹ s⁻¹; Kd [6]: 575 nM; koff [6]: 0.0206 s⁻¹; kon [6]: 35400 M⁻¹ s⁻¹; MFI [8]: 3.1e+07 MFI |
| B09/R347 (bispecific antibody, part only; not given: non-binding arm and constant regions, V domains shown, not shown: another chain or arm of the molecule; a dimerising Fc or GST; small tags and cut ends, AlexaFluor-647 or pHAb dye label on amines; positions not defined) VH: QVQLVQSGAEVKKPGASVKVSCKASGYTFTDYYIHWVRQATGQGLEWMGWMNPNSGNTGYAQKFQGRVTMTRDTSISTAYMELSSLRSEDTAVYYCARGQGYTHSWGQGTMVTVSS VL: DIQMTQSPSTLSASVGDRVTITCRASEGIYHWLAWYQQKPGKAPKLLIYKASSLASGVPSRFSGSGSGTEFTLTISSLQPDDFATYYCQQYSNYPPTFGGGTKLEIK |  |  |  |  |  |  |  |  |  |  | cytoplasmic intensity of AF647-labelled antibody in H1975 cells, fold higher for RAA22/B09 DuetMab than for B09-IgG (FIG. 7B) [9]: 4.7 fold |
| B09-57 IgG (antibody, V domains shown, also called B09-GL; anti-c-Met antibody clone B09-GL) VH: QVQLVQSGAEVKKPGASVKVSCKASGYTFTDYYIHWVRQATGQGLEWMGWMNPNSGNTGYAQKFQGRVTMTRDTSISTAYMELSSLRSEDTAVYYCARGQGYTHSWGQGTMVTVSS VL: DIQMTQSPSTLSASVGDRVTITCRASEGIYHWLAWYQQKPGKAPKLLIYKASSLASGVPSRFSGSGSGTEFTLTISSLQPDDFATYYCQQYSNYPPTFGGGTKLEIK | no binding (tested: 10 ug/ml) | no binding (tested: 10 ug/ml) | no binding (tested: 10 ug/ml) | 1.9 | 0.00194 | 1.04e+06 | 1.6 | 0.000882 | 563000 | no binding (tested: 10 ug/ml) | binding result [10]: no binding (tested: 10 ug/ml); binding result [11]: no binding (tested: 10 ug/ml); binding result [12]: no binding (tested: 500 nM EGFR) |
